Source: patent US20140017242A1, “ANTI-BRADYKININ B2 RECEPTOR (BKB2R) MONOCLONAL ANTIBODY” (Diamedica, Inc., priority 2010, published 2014)

Tests used:
ZDF fa/fa rats = assay: Oral glucose tolerance test in ZDF fa/fa rats, single dose of 5F12G1; format: in vivo, rat; settings: single s.c. administration 1.0, 0.2 and 0.04 mg/kg
Protocol: This Example describes evaluation of oral glucose tolerance in Zucker Diabetic fatty (ZDF fa/fa) rats treated with 5F12G1 monoclonal antibody. Male ZDF fa/fa rats (Charles River) were maintained on a Harlan Tekled diet with Arrowhead drinking water ad libitum and allowed to acclimatize for one week. Six animals per group were treated according to the following treatment groups: 1, sterile PBS (vehicle control); 2, 1.0 mg/kg murine monoclonal antibody (mAb) 5F12G1 (VH comprising SEQ ID NO:1, VL comprising SEQ ID NO:2); 3, 0.2 mg/kg mAb 5F12G1; 4, 0.04 mg/kg mAb 5F12G1.
Oral Glucose Tolerance Test. The Oral Glucose Tolerance Test (OGTT) was performed on overnight fasted (16 hours) rats. Vehicle control (PBS) or 5F12G1 monoclonal antibody was administered subcutaneously thirty minutes prior to glucose loading. D-glucose was prepared in distilled water and administered orally at 2 g/kg body weight.
At multiple time points (0, 15, 30, 60, 90 and 120 minutes) blood samples of approximately 50 μl each were collected and processed to isolate the plasma. The plasma samples were analyzed for insulin by an ELISA method using an ultra sensitive mouse insulin ELISA kit (Crystal Chem, Inc., Downers Grove, Ill.). ELISA data were compiled and used to calculate the mean±standard error (SEM) with Microsoft Excel or GraphPad Prism version 5.00 for Windows (GraphPad Software, San Diego Calif. USA).

[1] = system: diet induced obese (DIO) mice; assay: Oral glucose tolerance test in DIO mice, single dose of 5F12G1; format: in vivo, mouse; settings: single s.c. administration 1.0, 0.2 and 0.04 mg/kg
Protocol: This Example describes evaluation of oral glucose tolerance in diet induced obese (DIO) mice treated with the anti-BKB2R monoclonal antibody 5F12G1 (VH comprising SEQ ID NO:1, VL comprising SEQ ID NO:2). Male C57BL/6J mice (Jackson Laboratory, Bar Harbor, Me.) were maintained on a 60 kcal % fat diet with Research Diet and Arrowhead drinking water ad libitum and permitted to acclimatize for a period of eight weeks. Ten animals per group were treated according to the following treatment groups: 1, sterile PBS (vehicle control); 2, 1.0 mg/kg murine monoclonal antibody (mAb) 5F12G1; 3, 0.2 mg/kg mAb 5F12G1; 4, 0.04 mg/kg mAb 5F12G1.
Oral Glucose Tolerance Test. The Oral Glucose Tolerance Test (OGTT) was performed on overnight fasted (16 hours) mice. […] Blood glucose levels were measured before administration of vehicle or 5F12G1 (−30 minutes) and just before glucose loading (0 minute) and at ensuing timepoints of 15, 30, 60 90 and 120 minutes using an Accu-Chek™ glucose meter (Roche Diagnostics, Indianapolis, Ind.) according to the manufacturer's instructions.
At multiple time points (0, 15, 30, 60, 90 and 120 minutes) blood samples of approximately 50 μl each were collected and processed to isolate the plasma. The plasma samples were analyzed for insulin by an ELISA method using an ultra sensitive mouse insulin ELISA kit (Crystal Chem, Inc., Downers Grove, Ill.). […]

BKB2 receptor = target: T1, BKB2 receptor (Homo sapiens, UniProt P30411); assay: Intracellular calcium release in CHO-K1/B2/Gα15 cells (FLIPR Calcium 4); format: cell-based; set-up: expressed in transfected cells; settings: 0.5 mg/ml; normalized to the positive control; mean+/−SD, n=2
T1 sequence (P30411 1-391): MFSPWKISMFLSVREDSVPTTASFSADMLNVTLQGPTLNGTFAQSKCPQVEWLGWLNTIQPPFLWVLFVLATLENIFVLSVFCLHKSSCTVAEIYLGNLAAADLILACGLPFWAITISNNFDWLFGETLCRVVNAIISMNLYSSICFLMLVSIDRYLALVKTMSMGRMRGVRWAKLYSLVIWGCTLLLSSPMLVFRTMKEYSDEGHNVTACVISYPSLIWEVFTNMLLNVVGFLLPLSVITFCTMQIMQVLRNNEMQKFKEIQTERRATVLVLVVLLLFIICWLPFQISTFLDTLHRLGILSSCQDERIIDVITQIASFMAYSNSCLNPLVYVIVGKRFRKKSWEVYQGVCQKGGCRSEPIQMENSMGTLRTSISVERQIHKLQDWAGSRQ
Protocol: A stable CHO cell line expressing the human BKB2 receptor (CHO-K1/B2/Gα15) was used for the screening. The antibody was diluted to five different concentrations, from 0.5 mg/ml, via three-fold dilution increments, and screened on duplicate cell samples.
Expression and functional activity of the human BKB2 receptor in the CHO-K1/B2/Gα15 cell line were validated by exposure to the positive control, bradykinin.
To perform the assay, CHO-K1/B2/Gα15 cells were seeded in wells of a 384-well black-wall, clear-bottom plate at a density of 20,000 cells per well in 20 μL of growth medium 20 hours prior to the day of experiment, and maintained at 37° C./5% CO2. 20 μL of dye-loading solution (FLIPR™ Calcium 4 assay kit, Molecular Devices, Sunnyvale, Calif.) was added into each well and the plate was placed into a 37° C. incubator for 60 minutes, followed by 15 minutes at room temperature. The total reading time was 120 sec. After a 20-second reading to establish the baseline, the antibody or agonist were added to selected wells and the fluorescence signal was captured for another 100 seconds (21 s to 120 s). Readings from wells containing cells stimulated with assay buffer (0.03% Na3N PBS) containing 1% DMSO were chosen as the background values for screening; readings from wells containing cells stimulated with the agonist bradykinin (at 10 uM) were chosen as the positive control.

B1: 5F12G1: murine monoclonal anti-BKB2R antibody (IgG2b,κ), VH comprising SEQ ID NO:1, VL comprising SEQ ID NO:2 (antibody, listed as Mus musculus, V domains shown)
VH: EVKLEESGGGLVQPGGSMKLSCVVSGFTFSDYWMSWVRHSPEMGLEWVAEIRLKSDNYATHYAESVKGRFTISRDDSKSRLYLQINSLRGEDTGIYYCTRDYYAMEYWGQGTSVTVSS
VL: DVVMTQTPLSLPVSLGDQASISCRSSQTIVHSNGKTYLEWYLQKPGQSPKLLIYKVSNRFSGVPDRFSGSGSGTEFTLKISRVETEDLGVYYCFQASHVPYTFGGGTKLEIK
- insulin activity in OGTT (ZDF fa/fa rats): dose dependently increased insulin activity
- area under curve (AUC) of blood glucose concentration after oral loading of glucose, compared to vehicle control (ZDF fa/fa rats; 30 min before glucose 2 g/kg): decreased
- insulin activity in OGTT [1]: dose dependently increased insulin activity
- area under curve (AUC) of blood glucose concentration after oral loading of glucose, compared to vehicle control ([1]; 30 min before glucose 2 g/kg): decreased
- percentage of activation (BKB2 receptor): 72.7+/−3.5%
